From the supplement of paper PMC10567573

B1: RSPH3 (parent)
chain: MTVKPAKAASLARNLAKRRRTYLG

Variants of: B1
Experiment: protein stability index of a GFP-peptide fusion (GPS, HEK-293T) (PSI 1-6); higher = more stable
Details: c terminus: a fixed tail appended
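Further: lentivirally expressed fusions sorted by FACS into six bins by GFP to DsRed ratio, PSI derived from sequencing read proportions per bin multiplied by bin number.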

Row | Variant | protein stability index
1 | MTVKPAKAASLARNLAKRRATYLG [R20A] | 2.41
2 | MTVKPAKAASLARNLAKRRMTYLG [R20M] | 2.72
3 | MTVKPAKAASLARNLAKRRHTYLG [R20H] | 2.59
4 | MTVKPAKAASLARNLAKRRPTYLG [R20P] | 2.81
5 | MTVKPAKAASLARNLAKRRLTYLG [R20L] | 1.81
6 | MTVKPAKAASLARNLAKRRITYLG [R20I] | 2.17
7 | MTVKPAKAASLARNLAKRRNTYLG [R20N] | 2.94
8 | MTVKPAKAASLARNLAKRRKTYLG [R20K] | 3.12
9 | MTVKPAKAASLARNLAKRRFTYLG [R20F] | 1.96
10 | MTVKPAKAASLARNLAKRRSTYLG [R20S] | 2.61
11 | MTVKPAKAASHARNLAKRRRTYLG [L11H] | 3.66
12 | MTVKPAKAASNARNLAKRRRTYLG [L11N] | 3.99
13 | MTVKPAKAASYARNLAKRRRTYLG [L11Y] | 3.01
14 | MTVKPAKAASFARNLAKRRRTYLG [L11F] | 2.19
15 | MTVKPAKAASTARNLAKRRRTYLG [L11T] | 3.36
16 | MTVKPAKAASKARNLAKRRRTYLG [L11K] | 3.15
17 | MTVKPAKAASDARNLAKRRRTYLG [L11D] | 3.46
18 | MTVKPAKAASGARNLAKRRRTYLG [L11G] | 3
19 | MTVKPAKAASAARNLAKRRRTYLG [L11A] | 4
20 | MTVKPAKAASLARNLAKRRRTYMG [L23M] | 3.53
21 | MTVKPAKAASLARNLAKRRRTYVG [L23V] | 2.96
22 | MTVKPAKAASLARNLAKRRRTYKG [L23K] | 3.5
23 | MTVKPAKAASLARNLAKRRRTYYG [L23Y] | 3
24 | MTVKPAKAASLARNLAKRRRTYRG [L23R] | 3.61

Row | Variant | protein stability index
25 | MTVKPAKAASLARNLAKRRRTYIG [L23I] | 4.26
26 | MTVKPAKAASLARNLAKRRRTYNG [L23N] | 3.5
27 | MTVKPAKAASLARMLAKRRRTYLG [N14M] | 2.39
28 | MTVKPAKAASLARCLAKRRRTYLG [N14C] | 2.14
29 | MTVKPAKAASLARTLAKRRRTYLG [N14T] | 3.29
30 | MTVKPAKAASLARGLAKRRRTYLG [N14G] | 3.21
31 | MTVKPAKAASLARVLAKRRRTYLG [N14V] | 2.53
32 | MTVKPAKAASLARDLAKRRRTYLG [N14D] | 3.08
33 | MTVKPAKAASLARPLAKRRRTYLG [N14P] | 2.8
34 | MTVKPAKAASLARYLAKRRRTYLG [N14Y] | 2.75
35 | MTVKPAKAASLARALAKRRRTYLG [N14A] | 1.87
36 | MTVKPAKAASLARRLAKRRRTYLG [N14R] | 2.13
37 | MTVKPAKAQSLARNLAKRRRTYLG [A9Q] | 2.77
38 | MTVKPAKAGSLARNLAKRRRTYLG [A9G] | 2.71
39 | MTVKPAKAPSLARNLAKRRRTYLG [A9P] | 3.03
40 | MTVKPAKASSLARNLAKRRRTYLG [A9S] | 2.95
41 | MTVKPAKALSLARNLAKRRRTYLG [A9L] | 1.79
42 | MTVKPAKAVSLARNLAKRRRTYLG [A9V] | 3.28
43 | MTVKPAKAYSLARNLAKRRRTYLG [A9Y] | 3.04
44 | MTVKPAKADSLARNLAKRRRTYLG [A9D] | 2.9
45 | MTVKPAKAESLARNLAKRRRTYLG [A9E] | 3.65
46 | MTVKPAKAASLARNFAKRRRTYLG [L15F] | 2.08
47 | MTVKPAKAASLARNPAKRRRTYLG [L15P] | 3.75
48 | MTVKPAKAASLARNYAKRRRTYLG [L15Y] | 2.84

Row | Variant | protein stability index
49 | MTVKPAKAASLARNEAKRRRTYLG [L15E] | 4.42
50 | MTVKPAKAASLARNHAKRRRTYLG [L15H] | 3.32
51 | MTVKPAKAASLARNIAKRRRTYLG [L15I] | 3.14
52 | MTVKPAKAASLARNQAKRRRTYLG [L15Q] | 3.34
53 | MTVKPAKAASLARNSAKRRRTYLG [L15S] | 3.75
54 | MTVKPAKAASLARNCAKRRRTYLG [L15C] | 3.14
55 | MTVKPAKAASLARNDAKRRRTYLG [L15D] | 4.11
56 | MTVKPAKAASLARNLAKRPRTYLG [R19P] | 1.86
57 | MTVKPAKAASLARNLAKRDRTYLG [R19D] | 2.88
58 | MTVKPAKAASLARNLAKRTRTYLG [R19T] | 2.52
59 | MTVKPAKAASLARNLAKRFRTYLG [R19F] | 1.23
60 | MTVKPAKAASLARNLAKRKRTYLG [R19K] | 2.86
61 | MTVKPAKAASLARNLAKRWRTYLG [R19W] | 1.64
62 | MTVKPAKAASLARNLAKRARTYLG [R19A] | 1.79
63 | MTVKPAKAASLARNLAKRMRTYLG [R19M] | 3.63
64 | MTVKPAKAASLARNLAKRRRTWLG [Y22W] | 3.06
65 | MTVKPAKAASLARNLAKRRRTMLG [Y22M] | 2.9
66 | MTVKPAKAASLARNLAKRRRTDLG [Y22D] | 3.31
67 | MTVKPAKAASLARNLAKRRRTVLG [Y22V] | 3.99
68 | MTVKPAKAASLARNLAKRRRTCLG [Y22C] | 3.63
69 | MTVKPAKAASLARNLAKRRRTILG [Y22I] | 3.37
70 | MTVKPAKAASLARNLAKRRRTALG [Y22A] | 3.81
71 | MTVKPAKAATLARNLAKRRRTYLG [S10T] | 3.41
72 | MTVKPAKAANLARNLAKRRRTYLG [S10N] | 2.99

Row | Variant | protein stability index
73 | MTVKPAKAAFLARNLAKRRRTYLG [S10F] | 2.35
74 | MTVKPAKAACLARNLAKRRRTYLG [S10C] | 2.01
75 | MTVKPAKAAHLARNLAKRRRTYLG [S10H] | 3.28
76 | MTVKPAKAAELARNLAKRRRTYLG [S10E] | 2.74
77 | MTVKPAKAAYLARNLAKRRRTYLG [S10Y] | 2.03
78 | MTVKPAKAAPLARNLAKRRRTYLG [S10P] | 3.1
79 | MTVKPAKAALLARNLAKRRRTYLG [S10L] | 3.35
80 | MTVKFAKAASLARNLAKRRRTYLG [P5F] | 1.52
81 | MTVKCAKAASLARNLAKRRRTYLG [P5C] | 2.05
82 | MTVKQAKAASLARNLAKRRRTYLG [P5Q] | 2.63
83 | MTVKGAKAASLARNLAKRRRTYLG [P5G] | 2.75
84 | MTVKVAKAASLARNLAKRRRTYLG [P5V] | 2.69
85 | MTVKAAKAASLARNLAKRRRTYLG [P5A] | 2.93
86 | MTVKWAKAASLARNLAKRRRTYLG [P5W] | 2.48
87 | MTVKHAKAASLARNLAKRRRTYLG [P5H] | 2.91
88 | MTVKEAKAASLARNLAKRRRTYLG [P5E] | 2.52
89 | MTVKSAKAASLARNLAKRRRTYLG [P5S] | 2.56
90 | MTVKPALAASLARNLAKRRRTYLG [K7L] | 3.62
91 | MTVKPAQAASLARNLAKRRRTYLG [K7Q] | 3.88
92 | MTVKPADAASLARNLAKRRRTYLG [K7D] | 3.25
93 | MTVKPAHAASLARNLAKRRRTYLG [K7H] | 3.82
94 | MTVKPANAASLARNLAKRRRTYLG [K7N] | 3.21
